Where two headings read alike, the source gives them in different places.
T1: recombinant human BCMA-his fusion protein (ACRO Biosystem, Cat. No. BCA-H522y) (human, UniProt Q02223 1-54)
T1 construct: extracellular domain; Bought protein; also called huBCMA-his; hu BCMA-his; not shown: His tag
T1 sequence (looked up): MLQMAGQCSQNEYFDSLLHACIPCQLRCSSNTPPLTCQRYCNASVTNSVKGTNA

T2: human BCMA on cells (NCI-H929, U266B1, HEK293 huBCMA) (human, UniProt Q02223 1-184)
T2 construct: whole, on cells; also called cell surface BCMA antigen
T2 sequence (looked up): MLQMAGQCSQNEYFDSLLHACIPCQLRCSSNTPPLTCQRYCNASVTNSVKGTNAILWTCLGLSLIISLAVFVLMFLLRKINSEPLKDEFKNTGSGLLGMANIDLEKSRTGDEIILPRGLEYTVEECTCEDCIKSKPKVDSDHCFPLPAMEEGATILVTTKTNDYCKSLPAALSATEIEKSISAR

T3: recombinant human BCMA-mFc fusion protein (human; mouse)
T3 construct: also called huBCMA-mFc
T3 chain: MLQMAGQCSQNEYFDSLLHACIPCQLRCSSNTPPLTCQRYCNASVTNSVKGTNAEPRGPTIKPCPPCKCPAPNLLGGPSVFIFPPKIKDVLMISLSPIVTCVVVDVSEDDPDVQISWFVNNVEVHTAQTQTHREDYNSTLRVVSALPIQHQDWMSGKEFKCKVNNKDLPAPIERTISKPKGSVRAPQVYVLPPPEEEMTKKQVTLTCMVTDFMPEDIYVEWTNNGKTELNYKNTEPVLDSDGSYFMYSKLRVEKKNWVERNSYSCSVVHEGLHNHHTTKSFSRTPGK


Experiments:
[1] = target: T1, recombinant human BCMA-his fusion …; test: competitive ELISA, coated huBCMA-his, competitor 83A10-biotin
Protocol: The 96-well microplate was treated with 100 μL of 0.5 μg/mL huBCMA-his in PBS and incubated overnight at 4° C. The plate was then washed thrice with PBS washing buffer containing 0.1% of Tween-20 and blocked with 300 μL of PBS containing 1% of BSA for 2 h. 100 μL of each BCMA antibody was added to the plate. […] The plate was incubated at 37° C. for 1 h, and unbound secondary antibody was washed with PBS washing buffer containing 0.1% of Tween-20. The TMB chromogenic solution was added at 100 μL/well. After a 5-min reaction at room temperature, 2 M H₂SO₄ was added at 100 μL/well to terminate the reaction. The microplate was placed on a microplate reader (Molecular Devices, SPECTRA Max plus 384) and the absorbance OD450 value was read at 450 nm wavelength.

[2] = target: T2, human BCMA on cells (NCI-H929, U266B1, …); test: flow cytometry on NCI-H929 cells
Protocol: Procedures: The cells were resuspended in PBS, and the cell density was adjusted to 2×10^5 cells/well. Human-mouse chimeric monoclonal antibodies were added to a 96-well plate at 50 μL/well and serially 3-fold diluted from 3000 nM to the 9th concentration. The plate was incubated for 1 h at 4° C. 150 μL of precooled PBS containing 1% of FBS was added into the 96-well plate after the co-incubation with the primary antibody was finished. The mixtures were centrifuged at 300×g for 5 min and the supernatants were discarded. The above procedures were repeated once. The fluorescent secondary antibody PE anti-human IgG Fc (Biolegend, 409304) was added at 80 μL/well. The plate was incubated at 4° C. for 30 min. 150 μL of precooled PBS containing 1% of FBS was added into the 96-well plate after the co-incubation with the secondary antibody was finished. The 96-well plate was centrifuged at 300×g for 5 min and the supernatants were discarded. The above procedures were repeated once. The cells were resuspended in 100 μL of PBS containing 1% of FBS and detected on a flow cytometry (BD Accuri™ C6).

[3] = target: T2, human BCMA on cells (NCI-H929, U266B1, …); test: flow cytometry on NCI-H929 cells; remark: listed apart in the source
Protocol: Procedures: Preparation of cell suspensions: The cells were resuspended in PBS, and the cell density was adjusted to 2×10⁵ cells/well. Mouse antibodies were added to a 96-well plate at […] and serially 3-fold diluted from 3000 nM. The plate was incubated for 1 h at 4° C. 150 μL of precooled PBS containing 1% of FBS was added into the 96-well plate after the co-incubation with the primary antibody was finished. The mixtures were centrifuged at 300×g for 5 min and the supernatants were discarded. The above procedures were repeated once. The fluorescent secondary antibody PE […] (Biolegend, 409304) was added at 80 μL/well. The plate was incubated at 4° C. for 30 min. 150 μL of precooled PBS containing 1% of FBS was added into the 96-well plate after the co-incubation with the secondary antibody was finished. The mixtures were uniformly mixed with a pipette. The 96-well plate was centrifuged at 300×g for 5 min in a plate centrifuge and the supernatants were removed. The above procedures were repeated once. The cells were resuspended in 100 μL of PBS containing 1% of FBS and detected on a flow cytometry (BD Accuri™ C6).

[4] = target: T3, recombinant human BCMA-mFc fusion …; test: indirect ELISA, coated antigen
Protocol: Procedures: Human, mouse and monkey BCMA antigens were prepared into 0.5 μg/mL coating solutions with PBS buffer. The coating solutions were added to a microplate at 100 μL/well and incubated at 4° C. overnight. The residual coating solution was discarded before 3% BSA was added at 300 μL/well, and the plate was blocked for 3 h at room temperature. The microplate was washed once with PB ST (PBS containing 0.1% of TWEEN 20) at 300 μL/well. The human-mouse chimeric monoclonal antibodies were serially 3-fold diluted from 10 μg/mL to the 9th concentration. The dilutions were added to the microplate at 100 μL/well. After a 1-h incubation at room temperature, the microplate was washed thrice with PB ST at 300 μL/well. The mouse anti-human IgG Fc antibody [HRP] mAb was 25,000-fold diluted with 1% BSA-PBST and added at 100 μL/well. After another 1-h incubation at room temperature, the microplate was washed thrice with PBST at 300 μL/well and dried. The TMB chromogenic solution was added at 100 μL/well. After a 5-min reaction at room temperature, 2 M H₂SO₄ was added at 100 μL/well to terminate the reaction. The microplate was placed on a microplate reader (Molecular Devices, SPECTRA Max plus 384) and the absorbance OD450 value was read at 450 nm wavelength.

| Binder | IC50 [1] [mg/L] | EC50 [2] [nM] | EC50 [3] [nM] | EC50 [4] [nM] |
| --- | --- | --- | --- | --- |
| human-mouse chimeric antibody c-mAb3 (antibody, human IgG1, V domains shown, not shown: human IgG1 heavy chain constant region, GenBank No. AK303185.1; human kappa light chain constant region, GenBank No. MG815648.1) VH: EVQLQQSGPELVKPGASVKILCKASGYTITDYNMDWVKRSHGKSLEWIGNINPHNGGSIYNQKFKGKATLTVDKSSSTAFMELRSLTSEDTAVYYCARGDATLVLDYWGQGTSLTVSS VL: DIVLTQSPASLAVSLGQRATISCRASKSVSTSGLSYMHWYQQKPGQPPKVLIYLASNLESGVPARFSGSGSGTDFTLNIHPVEEEDAATYYCQHSRELPPTFGAGTKLELK | 1 | 8.25 | 8.25 | 0.794 |
| human-mouse chimeric antibody c-mAb2 (antibody, human IgG1, V domains shown, not shown: human IgG1 heavy chain constant region, GenBank No. AK303185.1; human kappa light chain constant region, GenBank No. MG815648.1) VH: QVQLQQSDAELVKPGTSVKISCKVSGYTFTDHTIHWMKQRPEQGLEWIGYIYPRNGNTKYNEKFKGKATLTADKSSSTAYMHLNSLTSEDSAVYFCARYDYDGYFDVWGTGTTVTVSS VL: DVVMTQTPLSLPVSLGDQASISCRSSQSHVHSDGHTYLHWYLQKPGQSPELLIYKVSNRFSGVPDRFSGSGSGTDFTLKISRVEAEDLGVYFCSQNTHFPWTFGGGTKLEIK | 8 | 5.7 | 5.7 | 0.427 |

Reference: patent US20240117061A1 (WUHAN YZY BIOPHARMA, published 2024)
